The results in this text go back to patent US20170137855A1, “RECOMBINANT CELLS AND METHODS FOR NONPHOSPHORYLATIVE METABOLISM” (REGENTS OF THE UNIVERSITY OF MINNESOTA, priority 2015, published 2017).

Substrate in series [1]: O=C(O)[C@H](O)[C@@H](O)[C@@H](O)CO
The experiment in a line: L-arabonate dehydratase, semicarbazide method. As to conditions: other: 100 nM enzyme, 100 mM Tris-HCl, 5 mM MgSO4, pH 7.5. It is filed as biochemical, Burkholderia multivorans. From the text:
(§1) Finally, the 2-ketoacids produced were quantified by detecting their semicarbazone absorbance at 250 nm.

Substrate in series [2]: O=C(O)[C@H](O)[C@@H](O)[C@H](O)CO
The experiment in a line: C. crescentus D-xylonate dehydratase, semicarbazide method. As to conditions: other: 100 nM enzyme, 100 mM Tris-HCl, 5 mM MgSO4, pH 7.5. It is filed as biochemical, Caulobacter crescentus.
From the text: as §1

Substrate in series [3]: O=C(O)C(=O)C[C@H](O)CO
The experiment in a line: C. crescentus 2-keto-3-deoxy-D-xylonate dehydratase, coupled assay with KGSADH. Type of series: biochemical, Caulobacter crescentus. The note with it: other: coupled assay, substrate from 0-20 mM D-xylonate, 1 mM NAD+, pH 7.5, 25° C. The protocol: (§2) 2-Keto-3-deoxy-D-xylonate dehydratase (XylX/DR64-8450), 2-keto-3-deoxy-L-arabonate dehydratase (AraD) and 5-keto-4-deoxy-D-glucarate dehydratase (YcbC): Enzyme activities of XylX, DR64-8450, AraD and YcbC were assayed spectrophotometrically in a coupled assay with the corresponding previous dehydratase and 2-ketoglutaric semialdehyde dehydrogenase (KGSADH) as previously described (Watanabe et al., 2006. J Biol. Chem. 281:33521-33536). […] The reaction was initiated by adding an appropriate amount of 2-keto-3-deoxy-D-xylonate dehydratase (XylX/DR64-8450)/2-keto-3-deoxy-L-arabonate dehydratase (AraD)/5-keto-4-deoxy-D-glucarate dehydratase (YcbC), and the increasing absorbance at 340 nm caused by NADH produced in the reaction was monitored.

Substrate in series [4]: O=C(O)[C@H]1OC(O)[C@H](O)[C@@H](O)[C@H]1O
The series can be described thus: purified protein, by the assay type. The note with it: other: D-galacturonate 0 to 10 mM, 1 mM NAD+, pH 7.5, 30° C., 30.0 °C.

Substrate in series [5]: OC1OC[C@H](O)[C@H](O)[C@H]1O
The experiment in a line: L-arabinose dehydrogenase, NADH generation at 340 nm. Type of series: biochemical, Burkholderia multivorans. As to conditions: other: L-arabinose 0 to 10 mM, 1 mM NAD+, pH 7.5, 30° C. The protocol: A series of enzymatic assays were conducted to estimate the initial activity as a function of starting substrate concentration. […] Kinetic constants (kcat/Km) for following enzymes were calculated with the same method.

Substrate in series [6]: O=C(O)C(=O)C[C@H](O)CO
The experiment in a line: B. xenovorans 2-keto-3-deoxy-D-xylonate dehydratase, coupled assay with KGSADH. Type of series: biochemical, Burkholderia xenovorans LB400. The note with it: other: coupled assay, substrate from 0-20 mM D-xylonate, 1 mM NAD+, pH 7.5, 25° C. The protocol:
as §2

Substrate in series [7]: O=C(O)[C@@H](O)[C@H](O)[C@H](O)[C@@H](O)C(=O)O
The experiment in a line: purified protein, by the assay type. The note with it: other: 100 nM enzyme, 100 mM Tris-HCl, 5 mM MgSO4, pH 7.5.

Substrate in series [8]: O=C(O)C(=O)C[C@@H](O)CO
The experiment in a line: 2-keto-3-deoxy-L-arabonate dehydratase, coupled assay with KGSADH. As to conditions: other: coupled assay, substrate from 0-20 mM L-arabonate, 1 mM NAD+, pH 7.5, 25° C. Type of series: biochemical, Burkholderia multivorans. As to the method:
as §2

Substrate in series [9]: O=C(O)[C@H](O)[C@@H](O)[C@H](O)CO
The experiment in a line: B. xenovorans D-xylonate dehydratase, semicarbazide method. Type of series: biochemical, Burkholderia xenovorans LB400. The note with it: other: 100 nM enzyme, 100 mM Tris-HCl, 5 mM MgSO4, pH 7.5.
From the text: as §1

B1: Burkholderia multivorans L-arabonate dehydratase (AraC, BmulJ 5323) (Burkholderia multivorans ATCC 17616) (protein)
chain: MSATKPRLRSAQWFGTNDKNGFMYRSWMKNQGIPDHEFDGRPIIGICNTWSELTPCNAHFRKLAEHVKRGIFEAGGFPVEFPVFSNGESNLRPSAMLTRNLASMDVEEAIRGNPIDAVVLLAGCDKTTPALLMGAASCDVPAIVVSGGPMLNGKLEGKNIGSGTAVWQLHEALKAGEIDLHHFLSAEAGMSRSAGTCNTMGTASTMACMAEALGVALPHNAAIPAVDSRRYVLAHMSGIRIVEMALEGLVLSKVLTRAAFENAIRVNAAIGGSTNAVIHLKAIAGRIGVPLELEDWMRIGRDTPTIVDLMPSGRFLMEEFYYAGGLPAVLRRLGEGGLLPHPDALTVNGKTLWDNVREAPNYDDEVIRPLDRPLIADGGIRILRGNLAPRGAVLKPSAASPELLKHRGRAVVFENFDHYKATINDESLDVDANSVLVLKNCGPRGYPGMAEVGNMGLPPKLLRQGVKDMVRISDARMSGTAYGTVVLHVAPEAAAGGPLAAVRNGDWIELDCEAGTLHLDIPDDELQRRLSDVDPAAAPGVAGQAGKGGYARLYLDHVLQADEGCDLDFLVGTRGAEVPSHSH
notes: gene from B. multivorans genomic DNA
As usually defined, the kcat is the number of substrate molecules converted per active site and unit of time at saturation. As for B1, the kcat in series [1] was determined as 0.17 s⁻¹.

B2: Caulobacter crescentus D-xylonate dehydratase (XylD) (Caulobacter vibrioides CB15) (protein)
chain: MRSALSNRTPRRFRSRDWFDNPDHIDMTALYLERFMNYGITPEELRSGKPIIGIAQTGSDISPCNRIHLDLVQRVRDGIRDAGGIPMEFPVHPIFENCRRPTAALDRNLSYLGLVETLHGYPIDAVVLTTGCDKTTPAGIMAATTVNIPAIVLSGGPMLDGWHENELVGSGTVIWRSRRKLAAGEITEEEFIDRAASSAPSAGHCNTMGTASTMNAVAEALGLSLTGCAAIPAPYRERGQMAYKTGQRIVDLAYDDVKPLDILTKQAFENAIALVAAAGGSTNAQPHIVAMARHAGVEITADDWRAAYDIPLIVNMQPAGKYLGERFHRAGGAPAVLWELLQQGRLHGDVLTVTGKTMSENLQGRETSDREVIFPYHEPLAEKAGFLVLKGNLFDFAIMKSSVIGEEFRKRYLSQPGQEGVFEARAIVFDGSDDYHKRINDPALEIDERCILVIRGAGPIGWPGSAEVVNMQPPDHLLKKGIMSLPTLGDGRQSGTADSPSILNASPESAIGGGLSWLRTGDTIRIDLNTGRCDALVDEATIAARKQDGIPAVPATMTPWQEIYRAHASQLDTGGVLEFAVKYQDLAAKLPRHNH
notes: His; made in house; host or cells: E. coli BL21
The term Km denotes the concentration of substrate that gives half-maximal velocity. A word on the kcat/Km: it is the turnover number divided by the Michaelis constant. B2: in series [2], the Michaelis constant (Km) came to 1180 ± 50 µM, the kcat came out at 7.6 ± 1.1 s⁻¹ and the specificity constant (kcat/Km) is 6400 M⁻¹ s⁻¹.

B3: Caulobacter crescentus 2-keto-3-deoxy-D-xylonate dehydratase (XylX) (Caulobacter vibrioides NA1000) (protein)
chain: MGVSEFLPEDWKAATLLGRIDFGEGPTPVLVRGGRVEDVSKIAPTVADLMNAFQPGAVIPRGEDKGPLEALDIRPVWEDPDGAAPVKLLAPVDLQCLKAAGVTFAVSTLERVIEERARGDAGEALKIRTLLAERMGGDLKSVEPGSQGAQRLKDALIADGLWSQYLEVAIGPDAEIFTKGPTLSSMGWGDQVGVRYDSHWNNPEPEVVLLCDGSGLIRGAALGNDVNLRDFEGRSALLLSKAKDNNASCAIGPFFRLFDETFGLDDVRSAEVELKITGRDNFVLDGKSNMSLISRDPAVLAGQAYGKQHQYPDGFALFLGTMFAPIQDRDTPGQGFTHKVGDRVRVSTPKLGVLENEVTTCDKAKPWTFGISALIRNLAGRGLL
notes: coupled with XylD and KGSADH; BlpI site removed in gene
B3: in series [3], the Km is 1900 ± 80 µM, the turnover number (kcat) was found to be 0.53 ± 0.1 s⁻¹ and the kcat/Km is 260 M⁻¹ s⁻¹.

B4: Pseudomonas putida KT2440 uronate dehydrogenase (Udh) (Pseudomonas putida KT2440) (protein)
chain: MTTTPFNRLLLTGAAGGLGKVLRERLKGYAEVLRLSDISPMAPAAGPHEEVITCDLADKAAVHTLVEGVDAIIHFGGVSTEHAFEEILGPNICGVFHVYEAARKHGVKRIIFASSNHTIGFYRQDERIDAHAPRRPDSYYGLSKCYGEDVASFYFDRYGIETVSIRIGSSFPQPQNLRMLCTWLSYDDLVQLIERGLFTPGVGHTIVYGASDNRTVWWDNRHAAHLGYVPKDSSETFRAAVEAQPAPAADDPSMVYQGGAFAVAGPFN
Turning to B4, in series [4], the Km was found to be 150 µM and the kcat is 24.1 s⁻¹.

B5: Burkholderia multivorans L-arabinose dehydrogenase (AraA, BmulJ 5320) (Burkholderia multivorans ATCC 17616) (protein)
chain: MSQVVSLGVVGIGKIARDQHLPAIAAEPGFALTACASRHAEVTGVRNYPDLGALLAGEPELAAVSLCAPPQVRYAQARAALNAGKHVMLEKPPGATLGEVAALEALAQSRGLTLFATWHSRCASAVEPARAWLATREIRAVQVRWKEDVRRWHPGQQWIWEPGGLGVFDPGINALSIVTRILPRELVLREATLVVPSDTQTPIAAELECADTDGVPVHAEFDWRHGPVEQWEIAVDTADGVLAISAGGAKLSIAGEPVEVGPAREYPALYAQFHALIARRESDVDVRPLRLVADAFLFGRRVDTEAFGR
notes: as for B1
For B5, the kcat in [5] came to 101.4 s⁻¹.

B6: Burkholderia xenovorans LB400 2-keto-3-deoxy-D-xylonate dehydratase (DR64_8450) (Paraburkholderia xenovorans LB400) (protein)
chain: MSATSPSSFLPDDLGQALLVGRVWRKTDQHEGPSVVVVRGGEVFDITATVPTTADLFDREDAAPLARTAPGVSLGAVAQLIASNLPGAAAPALRLLAPCDVQAIKACGVTFAVSLIERVIEEQAAGDPAKAKEVRDTIASMIGTDLSKIEPGSDAAMKLKAELERRGAWSQYMEVGIGPDAEVFSKSQPMSAVGFGADVGLLAASTWNNPEPEIVLAVNSRGEIVGATLGNDVNLRDIEGRSALLLGKCKDNNGSCAIGPFVRLFDESFSLDSVRTASVALRVEGADDGFVLEGVSHMSEISRDPANLVAQTWGRHHQYPDGFMLFLGTMFSPIKDRDAPGAGFTHHLGDLVTISTPQLGALTNTVRLSTEIEPWTFGVRALYRNLAARGLLASA
notes: coupled with D-xylonate dehydratase and KGSADH
Regarding B6, in [6], the Km was found to be 8960 ± 200 µM, the kcat was 4.72 ± 0.5 s⁻¹ and the catalytic efficiency (kcat/Km) stood at 530 M⁻¹ s⁻¹.

B7: E. coli D-galactarate dehydratase (GarD) (Escherichia coli K-12) (protein)
chain: MANIEIRQETPTAFYIKVHDTDNVAIIVNDNGLKAGTRFPDGLELIEHIPQGHKVALLDIPANGEIIRYGEVIGYAVRAIPRGSWIDESMVVLPEAPPLHTLPLATKVPEPLPPLEGYTFEGYRNADGSVGTKNLLGITTSVHCVAGVVDYVVKIIERDLLPKYPNVDGVVGLNHLYGCGVAINAPAAVVPIRTIHNISLNPNFGGEVMVIGLGCEKLQPERLLTGTDDVQAIPVESASIVSLQDEKHVGFQSMVEDILQIAERHLQKLNQRQRETCPASELVVGMQCGGSDAFSGVTANPAVGYASDLLVRCGATVMFSEVTEVRDAIHLLTPRAVNEEVGKRLLEEMEWYDNYLNMGKTDRSANPSPGNKKGGLANVVEKALGSIAKSGKSAIVEVLSPGQRPTKRGLIYAATPASDFVCGTQQVASGITVQVFTTGRGTPYGLMAVPVIKMATRTELANRWFDLMDINAGTIATGEETIEEVGWKLFHFILDVASGKKKTFSDQWGLHNQLAVFNPAPVT
Regarding B7, in [7], the Michaelis constant (Km) was found to be 760 µM and the kcat was determined as 18.9 s⁻¹.

B8: Burkholderia multivorans 2-keto-3-deoxy-L-arabonate dehydratase (AraD, BmulJ 5321) (Burkholderia multivorans ATCC 17616) (protein)
chain: MTSSRTPRYRGIFPVVPTTFTETGELDLASQKRAVDFMIDAGSDGLCILANFSEQFALADDERDVLTRTILEHVAGRVPVIVTTSHYSTQTCIARSVRAQQLGAAMVMVMPPYHGATFRVPEAQIHAFYARLSDALSIPIMIQDAPASGTVLSAPFLAQLAREIEHVAYFKIETPGAATKLRELIRLGGDAIEGPWDGEEAITLLADLHAGATGAMTGGAYPDGIRPILEAHREGRHDDAFARYQTWLPLINHENRQSGILTAKALMREGGVIACEAPRHPMPTLHPDTRAELIAIARRLDPLVLRWAR
notes: coupled with AraC and KGSADH
As for B8, in series [8], the Michaelis constant (Km) was determined as 9700 µM and the kcat worked out at 0.23 s⁻¹.

B9: Burkholderia xenovorans LB400 D-xylonate dehydratase (DR64_8449) (Paraburkholderia xenovorans LB400) (protein)
chain: MSASTPRRLRSQEWFDDPSHADMTALYVERFMNYGLTREELQSGRPIIGIAQTGSDLAPCNRHHIELAARTKAGIRDAGGIPMEFPVHPLAEQSRRPTAALDRNLAYLGLVEILHGFPLDGVVLTTGCDKTTPACLMAAATVDMPAIVLSGGPMLDGWHEGKRVGSGTVIWHARNLLATGEIDYEGFMQLTTASSPSIGHCNTMGTALSMNSLAEALGMSLPGCASIPAAYRERGQMAYATGKRIVDLVREDVRPSHIMTKAAFENAIVVASALGASTNCPPHLIAIARHMGVELTLDDWQRVGEQVPLIVNCMPAGEYLGESFHRAGGVPAVLRELVHAQLVHRECLTVSGRTIGEIAADAPSPDRDVIRTTEDPLKHGAGFIVLSGNFFDSAIMKMSVVGEAFRQTYLSEPGNENTFEARAIVFDGPEDYHARINDPSLDIDQHCILVIRGAGTVGYPGSAEVVNMAPPAELVRQGITSLPTLGDGRQSGTSASPSILNMSPEAAVGGGLSLLRTNDRIRVDLNSRSVNVLVDDEELARRRETATFAIPPTQTPWQELYRQTVGQLSTGGCLEPATLYLKVIAERGNPRHSH
notes: gene from LB400 genomic DNA
As to B9, in series [9], the Km was found to be 1520 ± 80 µM, the kcat is 1.73 ± 0.3 s⁻¹ and the kcat/Km was 1140 M⁻¹ s⁻¹.
